Reference: patent publication US20230212319A1, “NOVEL ANTIGEN BINDING DOMAINS AND SYNTHETIC ANTIGEN RECEPTORS INCORPORATING THE SAME” (University of Southern California, priority 2020, published 2023)

Legend:
Assay type in all cases: cell-based
RS;411 = assay: JNG assay, co-culture with RS;411 cells; settings: for NFAT-GFP ASSAY: RS411: co-culture with RS411
Description: Cellular supernatant is collected and assayed for the induction of cytokines (e.g., IL2).
JNG (Jurkat cells expressing EGFP under an NFAT promoter) were infected with lentiviral vectors encoding different single chain and multi-chain SARs by spinfection in the presence of 8 µg/ml of Polybrene® (Sigma, Catalog no. H9268). The Jurkat-NFAT-GFP cells are engineered in such a way that the IL-2 promoter, which carries NFAT binding sites, is cloned upstream of the GFP gene. These cells have been used to study signaling via TCR and CAR. The different SARs were stably expressed in Jurkat NFAT-GFP cells by lentiviral mediated gene transfer, followed by selection with puromycin or blasticidin. No drug selection was used in case the construct lacked an antibiotic resistance gene. The SAR-expressing Jurkat-NFAT-GFP cells were cocultured with the target cells at E:T ratio of approximately 1:2 for approximately 4 hours to 18 hours. When the interaction between SIRs and their target antigen results in activation of the NFAT pathway, GFP expression is induced. […] GFP expression was monitored by FACS analysis. The Jurkat-NFAT-GFP (parental) cells were used as control. The structure of different constructs can be determined based on their names. […] The sequence of the other constructs in the table can be similarly determined from their names and by referring to the different Tables of this disclosure that provide the names and SEQ ID NO of the different modules. Alternatively, the composition and modular architecture of the different SAR constructs can be determined from their sequences by bioinformatics tools, including using nucleic acid and amino acids homology searches. A SAR is considered positive in the assay in case the SAR expressing Jurkat-NFAT-GFP cells show greater % GFP positive cells when cultured with the target cell line as compared to parental Jurkat-NFAT-GFP cells. […] In general, the number +/-, +, 2+, 3+, 4+, 5+ refer to approximately 5%, 10%, 20%, 30%, 40% and 50% GFP positive cells. The % of GFP induction in the above assay is dependent not only the relative strength of the SAR but also, among other factors, on the relative level of expression of the SAR in the JNG cells and the relative level of expression of the target antigen in the target cell line. To control for the difference in gene transduction efficiency of the different SAR constructs, the experiment was conducted with JNG cells transduced with SAR constructs co-expressing a drug resistance gene (e.g., puromycin or PAC) followed by drug selection to generate a stable population of SAR-expressing cells. It is to be noted that the drug resistance gene (e.g., PAC) in the SAR constructs is optional and in vivo studies were conducted with SAR constructs lacking the PAC gene.

L363 cells = assay: JNG assay, co-culture with L363 cells; settings: co-culture with L363
Method in brief: (§1)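 Read-out is NFAT-driven GFP measured by flow cytometry after ~4–18 h co-culture of SAR-expressing JNG cells with target cells (E:T about 1:2). SARs were introduced by lentiviral spinfection and selected with puromycin or blasticidin when possible; scores (+/- to 5+ ≈ 5–50% GFP+) are relative to parental JNG cells.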

RAJI cells = assay: JNG assay, co-culture with RAJI cells
Method in brief: as §1

Nalm6 cells = assay: JNG assay, co-culture with Nalm6 cells
Method in brief: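 Scoring uses % GFP+ reporter cells above the parental control, where +/-, +, 2+, 3+, 4+ and 5+ correspond to about 5, 10, 20, 30, 40 and 50%. Effectors were SAR-expressing Jurkat NFAT-GFP cells cocultured with targets (E:T ~1:2, ~4–18 h).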

Row | Molecule | NFAT-GFP ASSAY: RS411 (RS;411) | NFAT-GFP ASSAY: L363 (L363 cells) | NFAT-GFP ASSAY: Raji (RAJI cells; JNG cells expressing construct, co-culture with Raji) | NFAT-GFP ASSAY: Nalm6 (Nalm6 cells; co-culture with Nalm6) | GFP induction / activity (Nalm6 cells; co-culture with Nalm6 cells) | GFP induction / activity (RS;411; co-culture with RS;411 cells) | GFP induction / activity (RAJI cells; co-culture with RAJI cells)
1 | 22143 (protein) MALPVTALLLPLALLLHAARPQVQLVESGGGLVQPGGSLRLSCAASGFTFTNHAMSWVRQAPGKGLELVSSISGNGRTTYYADSVKGRFTISRDISKNTLDLQMNSLRAEDTAVYYCAKDGGETLVDSRGQGTLVTVSSLEGGGGSGGGGSIEGGGGSGGGGSKVQLLESGGGLVQPGGSLRLSCAASGFIFSSYAMSWVRQAPGKGQEWVSGVSGTGVNTYYADSVKGRFTISRDNSKNTLYLQMNSLRAEDTAVYYCASGKGWDSGSWYEDYRGQGTLVTVSSGTGGGGSGGGGSGGGGSEFDIQMTQSPSSLSASVGDRVTITCKASDHINNWLAWYQQKPGQAPKLLIYGATTLETGVPSRFSGSGSGTDYTLTISSLQPEDFATYYCQQSWNTPWTFGQGTKLEIKRLEDLKNVFPPEVAVFEPSKAEIAHTQKATLVCLATGFYPDHVELSWWVNGKEVHSGVCTDPQPLKEQPALNDSRYCLSSRLRVSATFWQNPRNHFRCQVQFYGLSENDEWTQDRAKPVTQIVSAEAWGRADCGITSASYHQGVLSATILYEILLGKATLYAVLVSALVLMAMVKRKDSRGRAKRSGSGATNFSLLKQAGDVEENPGPTSATMDWIWRILFLVGAATGAHSGPQVQLQESGGGLAQAGGSLRLSCAASGRTFSMGWFRQAPGKEREFVAAITYSGGSPYYASSVRGRFTISRDNAKNTVYLQMNSLKPEDTAVYYCAANPTYGSDWNAENWGQGTQVTVSSGSGGGGSGGGGSGGGGSFEQVQLQQPGAELVKPGASVKMSCKASGYAFSSYWINWMKQKPGQGLEWIGQIYPGDGDTNYNGKFKGRATLTADTSSSTAYMQLSSLTSEDSAVYFCARSITTVVGCAMDYWGQGTSVTVSSTRIQNPDPAVYQLRDSKSSDKSVCLFTDFDSQTNVSQSKDSDVYITDKCVLDMRSMDFKSNSAVAWSNKSDFACANAFNNSIIPEDTFFPSSDVPCDVKLVEKSFETDTNLNFQNLSVIGFRILLLKVAGFNLLMTLRLWSSRAKRSGSGVKQTLNFDLLKLAGDVESNPGPSRGHMTEYKPTVRLATRDDVPRAVRTLAAAFADYPATRHTVDPDRHIERVTELQELFLTRVGLDIGKVWVADDGAAVAVWTTPESVEAGAVFAEIGPRMAELSGSRLAAQQQMEGLLAPHRPKEPAWFLATVGVSPDHQGKGLGSAVVLPGVEAAERAGVPAFLETSAPRNLPFYERLGFTVTADVEVPEGPRTWCMTRKPGA | 2+ (refer to approximately 5%, 10%, 20%, 30%, 40% and 50% GFP positive cells) | 2+ (refer to approximately 5%, 10%, 20%, 30%, 40% and 50% GFP positive cells) | 2+ (refer to approximately 5%, 10%, 20%, 30%, 40% and 50% GFP positive cells) |  |  |  | 
2 | 22124 (protein) MALPVTALLLPLALLLHAARPEVQLVESGGGLVQAGGSLRLSCAASGRTFSMGWFRQAPGKEREFVAAITYSGGSPYYADSVKGRFTISRDNAKNTVYLQMNSLKPEDTAVYYCAANPTYGSDWNAENWGQGTQVTVSSGGGGSGGGGSQLQLQESGPGLVKPSETLSLTCTVSGGSISSGDYYWGWIRQPPGKGLEWIGSISYSGSTYYNPSLKSRVTISVDTSRNQFSLKLSSVTAADTAVYYCTREDSSNWRSRGQGTLVTVSSGTGGGGSGGGGSGGGGSEFDIQMTQSPSSLSASVGDRVTITCKASDHINNWLAWYQQKPGQAPKLLIYGATTLETGVPSRFSGSGSGTDYTLTISSLQPEDFATYYCQQSWNTPWTFGQGTKLEIKRLEIQNPDPAVYQLRDSKSSDKSVCLFTDFDSQTNVSQSKDSDVYITDKCVLDMRSMDFKSNSAVAWSNKSDFACANAFNNSIIPEDTFFPSSDVPCDVKLVEKSFETDTNLNFQNLSVIGFRILLLKVAGFNLLMTLRLWSSRAKRSGSGVKQTLNFDLLKLAGDVESNPGPTSATMDWIWRILFLVGAATGAHSGPQVQLQESGGGLAQAGGSLRLSCAASGRTFSMGWFRQAPGKEREFVAAITYSGGSPYYASSVRGRFTISRDNAKNTVYLQMNSLKPEDTAVYYCAANPTYGSDWNAENWGQGTQVTVSSGSGGGGSGGGGSGGGGSFEQVQLQQPGAELVKPGASVKMSCKASGYAFSSYWINWMKQKPGQGLEWIGQIYPGDGDTNYNGKFKGRATLTADTSSSTAYMQLSSLTSEDSAVYFCARSITTVVGCAMDYWGQGTSVTVSSTREDLKNVFPPEVAVFEPSKAEIAHTQKATLVCLATGFYPDHVELSWWVNGKEVHSGVCTDPQPLKEQPALNDSRYCLSSRLRVSATFWQNPRNHFRCQVQFYGLSENDEWTQDRAKPVTQIVSAEAWGRADCGITSASYHQGVLSATILYEILLGKATLYAVLVSALVLMAMVKRKDSRGRAKRSGSGATNFSLLKQAGDVEENPGPSRGHMTEYKPTVRLATRDDVPRAVRTLAAAFADYPATRHTVDPDRHIERVTELQELFLTRVGLDIGKVWVADDGAAVAVWTTPESVEAGAVFAEIGPRMAELSGSRLAAQQQMEGLLAPHRPKEPAWFLATVGVSPDHQGKGLGSAVVLPGVEAAERAGVPAFLETSAPRNLPFYERLGFTVTADVEVPEGPRTWCMTRKPGA | 2+ (refer to approximately 5%, 10%, 20%, 30%, 40% and 50% GFP positive cells) |  |  | 2+ (refer to approximately 5%, 10%, 20%, 30%, 40% and 50% GFP positive cells) |  |  | 
3 | SEQ ID NO: 22162: bispecific SAR construct targeting CD19 and PD1 (protein) MALPVTALLLPLALLLHAARPDIQMTQSPSSLSASVGDRVTITCKASDHINNWLAWYQQKPGQAPKLLIYGATTLETGVPSRFSGSGSGTDYTLTISSLQPEDFATYYCQQSWNTPWTFGQGTKLEIKRLEDLKNVFPPEVAVFEPSEAEISHTQKATLVCLATGFYPDHVELSWWVNGKEVHSGVCTDPQPLKEQPALNDSRYCLSSRLRVSATFWQNPRNHFRCQVQFYGLSENDEWTQDRAKPVTQIVSAEAWGRADCGFTSESYQQGVLSATILYEILLGKATLYAVLVSALVLMAMVKRKDSRGRAKRSGSGATNFSLLKQAGDVEENPGPTSATMDWIWRILFLVGAATGAHSGPEVQLLESGGGLVQPGGSLRLSCAASGSIASIHAMGWFRQAPGKEREFVAVITWSGGITYYADSVKGRFTISRDNSKNTVYLQMNSLRPEDTALYYCAGDKHQSSWYDYWGQGTLVTVSSGSGGGGSGGGGSGGGGSFEQVQLQQPGAELVKPGASVKMSCKASGYAFSSYWINWMKQKPGQGLEWIGQIYPGDGDTNYNGKFKGRATLTADTSSSTAYMQLSSLTSEDSAVYFCARSITTVVGCAMDYWGQGTSVTVSSTRIQNPDPAVYQLRDSKSSDKSVCLFTDFDSQTNVSQSKDSDVYITDKCVLDMRSMDFKSNSAVAWSNKSDFACANAFNNSIIPEDTFFPSPESSCDVKLVEKSFETDTNLNFQNLSVIGFRILLLKVAGFNLLMTLRLWSSRAKRSGSGVKQTLNFDLLKLAGDVESNPGPSRGHMTEYKPTVRLATRDDVPRAVRTLAAAFADYPATRHTVDPDRHIERVTELQELFLTRVGLDIGKVWVADDGAAVAVWTTPESVEAGAVFAEIGPRMAELSGSRLAAQQQMEGLLAPHRPKEPAWFLATVGVSPDHQGKGLGSAVVLPGVEAAERAGVPAFLETSAPRNLPFYERLGFTVTADVEVPEGPRTWCMTRKPGA |  |  |  |  | robust activity | robust activity | robust activity
